1 molecule from paper PMC2683190 can be followed below.

The test addresses GST-LIF05 (mutant human LIF, LIFR antagonist, as glutathione-S-transferase fusion protein) (human) (UniProt P15018). Nature of the test: SPR. A general note: SPR reads the build-up and loss of mass on a sensor chip optically.

By Kd is commonly meant the concentration at which binding is half-saturated. A word on the koff: it is the first-order rate constant of dissociation. High values mean fast dissociation, low ones slow dissociation. In general, kon refers to the second-order rate constant of association. The low end stands for slow association, the high end for fast association.

Chain of GST-LIF05 (mutant human LIF, LIFR antagonist, as glutathione-S-transferase fusion protein) (human) (P15018 23-202, change not shown): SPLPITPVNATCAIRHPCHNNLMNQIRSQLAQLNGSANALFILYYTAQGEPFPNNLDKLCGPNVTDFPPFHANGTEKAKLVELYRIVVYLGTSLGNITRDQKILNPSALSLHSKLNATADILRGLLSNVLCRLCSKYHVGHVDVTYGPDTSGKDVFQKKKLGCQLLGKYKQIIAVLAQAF

B1: soluble LIFR (leukemia inhibitory factor receptor) (receptor)
chain: QKKGAPHDLKCVTNNLQVWNCSWKAPSGTGRGTDYEVCIENRSRSCYQLEKTSIKIPALSHGDYEITINSLHDFGSSTSKFTLNEQNVSLIPDTPEILNLSADFSTSTLYLKWNDRGSVFPHRSNVIWEIKVLRKESMELVKLVTHNTTLNGKDTLHHWSWASDMPLECAIHFVEIRCYIDNLHFSGLEEWSDWSPVKNISWIPDSQTKVFPQDKVILVGSDITFCCVSQEKVLSALIGHTNCPLIHLDGENVAIKIRNISVSASSGTNVVFTTEDNIFGTVIFAGYPPDTPQQLNCETHDLKEIICSWNPGRVTALVGPRATSYTLVESFSGKYVRLKRAEAPTNESYQLLFQMLPNQEIYNFTLNAHNPLGRSQSTILVNITEKVYPHTPTSFKVKDINSTAVKLSWHLPGNFAKINFLCEIEIKKSNSVQEQRNVTIKGVENSSYLVALDKLNPYTLYTFRIRCSTETFWKWSKWSNKKQHLTTEASPSKGPDTWREWSSDGKNLIIYWKPLPINEANGKILSYNVSCSSDEETQSLSEIPDPQHKAEIRLDKNDYIISVVAKNSVGSSPPSKIASMEIPNDDLKIEQVVGMGKGILLTWHYDPNMTCDYVIKWCNSSRSEPCLMDWRKVPSNSTETVIESDEFRPGIRYNFFLYGCRNQGYQLLRSMIGYIEELAPIVAPNFTVEDTSADSILVKWEDIPVEELRGFLRGYLFYFGKGERDTSKMRVLESGRSDIKVKNITDISQKTLRIADLQGKTSYHLVLRAYTDGGVGPEKSMYVVTKENS
As for B1, the Kd worked out at 4.72 nM, the dissociation rate constant (koff) worked out at 0.00265 s⁻¹ and the association rate constant (kon) turned out to be 562000 M⁻¹ s⁻¹.
